# Patent US20190300590A1 (PROTAGONIST THERAPEUTICS, published 2019)
# Bridges are numbered along the chain shown (N, C = ends). [ ]: non-standard residue; d: D form. DIG = diglycolic acid linker; AEA = NCCOCC(=O)O; βAla = NCCC(=O)O
# T1: IL23R_huFC (human, UniProt Q5VWK5 24-353)
# T1 sequence (looked up): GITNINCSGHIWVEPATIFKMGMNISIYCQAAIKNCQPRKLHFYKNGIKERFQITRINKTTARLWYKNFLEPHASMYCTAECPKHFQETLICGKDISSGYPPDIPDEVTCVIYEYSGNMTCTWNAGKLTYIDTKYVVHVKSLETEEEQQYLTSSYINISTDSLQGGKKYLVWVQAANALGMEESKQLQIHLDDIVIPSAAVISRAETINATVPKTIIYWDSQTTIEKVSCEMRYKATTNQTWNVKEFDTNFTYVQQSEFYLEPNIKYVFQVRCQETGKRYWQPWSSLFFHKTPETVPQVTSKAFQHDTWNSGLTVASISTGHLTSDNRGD
# T2: IL23R_huFC (human, UniProt Q5VWK5 24-353)
# T2 sequence (looked up): T1 sequence (looked up)
# T3: IL-23R on human cells (IL-23R-expressing DB cells; human NK cells) (human, UniProt Q5VWK5 24-629)
# T3 sequence (looked up): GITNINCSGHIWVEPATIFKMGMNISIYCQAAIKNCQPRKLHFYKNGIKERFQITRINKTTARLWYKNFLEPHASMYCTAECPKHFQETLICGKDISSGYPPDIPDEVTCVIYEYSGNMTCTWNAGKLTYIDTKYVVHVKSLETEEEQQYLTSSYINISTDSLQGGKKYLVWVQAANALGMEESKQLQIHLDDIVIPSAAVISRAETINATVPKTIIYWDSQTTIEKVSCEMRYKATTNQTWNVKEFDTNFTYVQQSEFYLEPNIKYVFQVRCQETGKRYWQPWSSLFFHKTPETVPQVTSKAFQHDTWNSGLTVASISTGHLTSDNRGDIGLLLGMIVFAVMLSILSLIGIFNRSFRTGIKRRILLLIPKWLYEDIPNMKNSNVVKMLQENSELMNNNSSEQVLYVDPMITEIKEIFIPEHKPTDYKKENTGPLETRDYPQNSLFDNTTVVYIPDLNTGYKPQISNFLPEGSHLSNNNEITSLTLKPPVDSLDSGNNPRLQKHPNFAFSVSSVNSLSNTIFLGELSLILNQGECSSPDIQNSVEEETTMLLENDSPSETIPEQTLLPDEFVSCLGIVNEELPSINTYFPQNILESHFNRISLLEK
# T4: IL-23R on DB cells (human, UniProt Q5VWK5 24-629)
# T4 sequence (looked up): T3 sequence (looked up)
# T5: IL23R_huFC (human, UniProt Q5VWK5 24-353)
# T5 sequence (looked up): T1 sequence (looked up)
# T6: Rat IL-23R_huFC (rat; human, UniProt F1LX96 39-369)
# T6 sequence: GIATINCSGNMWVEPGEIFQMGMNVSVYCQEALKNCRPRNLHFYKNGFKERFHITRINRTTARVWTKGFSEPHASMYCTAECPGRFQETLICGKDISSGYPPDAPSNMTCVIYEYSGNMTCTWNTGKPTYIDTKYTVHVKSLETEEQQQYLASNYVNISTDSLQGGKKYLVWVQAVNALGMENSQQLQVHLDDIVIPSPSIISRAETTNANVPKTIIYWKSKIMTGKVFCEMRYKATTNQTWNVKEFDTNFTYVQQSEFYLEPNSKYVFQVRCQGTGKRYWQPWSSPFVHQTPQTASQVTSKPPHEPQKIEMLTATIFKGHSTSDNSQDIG
# T7: Cyno IL-23R_huFC (cyno, UniProt G7NWY5 24-353)
# T7 sequence: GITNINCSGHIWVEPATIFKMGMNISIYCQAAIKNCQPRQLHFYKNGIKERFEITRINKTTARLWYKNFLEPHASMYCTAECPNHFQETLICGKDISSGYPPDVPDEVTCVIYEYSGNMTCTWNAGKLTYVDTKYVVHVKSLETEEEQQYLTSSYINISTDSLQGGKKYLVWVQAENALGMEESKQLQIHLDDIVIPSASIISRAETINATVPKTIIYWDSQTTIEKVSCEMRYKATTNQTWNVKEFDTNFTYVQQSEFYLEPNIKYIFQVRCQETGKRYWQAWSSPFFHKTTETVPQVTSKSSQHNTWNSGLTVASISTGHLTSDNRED
# T8: Recombinant human IL-23R_huFC (RnD) (human, UniProt Q5VWK5 24-353)
# T8 sequence (looked up): T1 sequence (looked up)
# B1: Recombinant human IL-23 (Humanzyme) (ligand)
# chain 1: RAVPGGSSPAWTQCQQLSQKLCTLAWSAHPLVGHMDLREEGDEETTNDVPHIQCGDGCDPQGLRDNSQFCLQRIHQGLIFYEKLLGSDIFTGEPSLLPDSPVGQLHASLLGLSQLLQPEGHHWETQQIPSLSPSQPWQRLLLRFKILRSLQAFVAVAARVFAHGAATLSP
# chain 2: IWELKKDVYVVELDWYPDAPGEMVVLTCDTPEEDGITWTLDQSSEVLGSGKTLTIQVKEFGDAGQYTCHKGGEVLSHSLLLLHKKEDGIWSTDILKDQKEPKNKTFLRCEAKNYSGRFTCWWLTTISTDLTFSVKSSRGSSDPQGVTCGAATLSAERVRGDNKEYEYSVECQEDSACPAAEESLPIEVMVDAVHKLKYENYTSSFFIRDIIKPDPPKNLQLKPLKNSRQVEVSWEYPDTWSTPHSYFSLTFCVQVQGKSKREKKDRVFTDKTSATVICRKNASISVRAQDRYYSSSWSEWASVPCS
# B2: [Ac-Cyclo-[[Abu]-QTWQC]-[Phe(4-OMe)]-[2-Nal]-[α-MeLys+-ENG-NH2]2DIG (peptide)
# peptide: XQTWQCFXKENG
# modifications: not fully specified; as bracketed in name; thioether cyclo; DIG linker through a-MeLys
# B3: [Ac-[(D)Lys]-Cyclo-[[Abu]-QTWQC]-[Phe(4-OMe)]-[2-Nal]-[α-MeLeu]-ENG-NH2]2 DIG (peptide)
# peptide: KXQTWQCFXLENG
# modifications: not fully specified; as bracketed in name; thioether cyclo; DIG linker through (D)Lys
# B4: [Ac-Cyclo-[[Abu]-QTWQC]-[Phe]4-(2-aminoethoxy)]]-[2-Nal]-[Aib]-QNG-NH2]2DIG (peptide)
# peptide: XQTWQCFXXQNG
# modifications: not fully specified; as bracketed in name; thioether cyclo; DIG linker through Phe[4-(2-aminoethoxy)]
# B5: [Ac-[Pen]-QTWQ-[Pen]-[Phe[4-(2-aminoethoxy)]-[2-Nal]-[α-Me-Leu]-QNN-NH2]2DIG (peptide)
# peptide: XQTWQXFXLQNN
# modifications: Ac; Pen-Pen disulfide; Phe[4-(2-aminoethoxy)]; 2-Nal; α-Me-Leu; NH2; DIG linker joins the two subunits
# B6: [Ac-[Pen]-QTWQ-[Pen]-[Phe[4-(2-aminoethoxy)]-[2-Nal]-[α-Me-Leu]-QNN-NH2]2PEG25 (peptide)
# peptide: XQTWQXFXLQNN
# modifications: Ac; Pen-Pen disulfide; Phe[4-(2-aminoethoxy)]; 2-Nal; α-Me-Leu; NH2; PEG25 linker joins the two subunits
# B7: Peptide 993 (peptide)
# peptide: RXQTWQCFXXENN
# modifications: Ac-[(D)Arg]-Cyclo-[[Abu]-QTWQC]-[Phe[4-(2-aminoethoxy)]]-[2-Nal]-[4-amino-4-carboxy-tetrahydropyran]-ENN-NH2; cyclized by Abu-Cys thioether
# What was measured:
# [1] = target: T1, IL23R_huFC; experiment: IL23-IL23R competitive ELISA, IC50 grade
# [2] = target: mixture of IL-12Rβ1_huFC and IL-23R_huFC (mixed surface) (human, UniProt P42701 24-540; Q5VWK5 24-353, limits assumed); experiment: SPR, mixed surface of IL-12Rβ1 and IL-23R
# [3] = target: T2, IL23R_huFC; experiment: human ELISA vs IL-23
# [4] = target: T3, IL-23R on human cells …; experiment: cell-based or functional assay
# [5] = target: T3, IL-23R on human cells …; experiment: cell-based or functional assay; remark: listed apart in the source
# [6] = target: Rat IL-23R_huFC (rat); experiment: rat ELISA vs IL-23
# [7] = target: Rat IL-23R_huFC (rat); experiment: rat ELISA vs IL-23; remark: listed apart in the source
# [8] = target: T2, IL23R_huFC; experiment: human ELISA vs IL-23; remark: listed apart in the source
# [9] = target: T4, IL-23R on DB cells; experiment: cell-based or functional assay
# [10] = target: T5, IL23R_huFC; experiment: IL23-IL23R competitive binding ELISA
# [11] = target: T1, IL23R_huFC; experiment: IL23-IL23R competitive ELISA
# [12] = target: T1, IL23R_huFC; experiment: IL23-IL23R competitive ELISA, IC50 grade; remark: listed apart in the source
# [13] = target: T6, Rat IL-23R_huFC; experiment: rat IL-23R competitive ELISA
# [14] = target: Rat IL-23R_huFC (rat); experiment: IL-23/IL-23R competitive binding ELISA, rat
# [15] = target: T7, Cyno IL-23R_huFC; experiment: IL-23/IL-23R competitive binding ELISA, cyno
# [16] = target: T8, Recombinant human IL-23R_huFC (RnD); experiment: IL-23/IL-23R competitive binding ELISA, human
# [17] = target: Rat IL-23R_huFC (rat); experiment: rat ELISA vs IL-23; remark: listed apart in the source
binder,measurement,setting,value
Ac-CADWVCYWHTK(DIG)G-OH (cysteine pairing not given here; also: dimer through DIG on Lys) [(Ac-CADWVCYWHTKG-OH)2DIG],IC50,[1],1000 to 10000 nM
B1,fold of affinity against Compound C,[2],~14 fold
B2,IC50,[3],< 10 nM
same,pStat3 HTRF IC50,[4],< 10 nM
same,NK cell assay IC50 (IFNγ),[5],< 25 nM
same,IC50,[6],10 to 25 nM
B3,IC50,[3],< 10 nM
same,pStat3 HTRF IC50,[4],< 10 nM
same,IC50,[7],25 to 100 nM
B4,IC50,[8],25 to 100 nM
B5,pStat3 HTRF IC50,[9],10 to 25 nM
same,IC50,[10],10 to 25 nM
B6,pStat3 HTRF IC50,[9],10 to 25 nM
same,IC50,[10],< 10 nM
H-CADWVCYWHTFG-NH2 (disulfide 1-6 (inferred)) [Hy-CADWVCYWHTFG-NH2],IC50,[11],500 to 1000 nM
same,IC50,[12],100 to 1000 nM
Ac-CQTWQCYW[βAla]VFG[AEA][dK]-NH2 (disulfide 1-6 (inferred)) [Ac-CQTWQCYW-[βAla]-VFG-[AEA]-[(D)Lys]-NH2],IC50,[13],2210 nM
B7,IC50,[14],2 nM
same,IC50,[15],2 nM
same,IC50,[16],2 nM
CADWVXYWHTFGXK (as bracketed in name; cyclized via Cys and Pen) [Ac-CADWV-[(D)Pen]-YWHTFG-[AEA]-[(D)-Lys]-NH2],IC50,[17],1000 to 10000 nM
